# T1: rhesus CD19 (rhesus (Macaca mulatta), UniProt F7F486 20-557)
# T1 construct: whole, on cells; also called CD19 from rhesus monkey (Macaca mulatta)
# T1 sequence: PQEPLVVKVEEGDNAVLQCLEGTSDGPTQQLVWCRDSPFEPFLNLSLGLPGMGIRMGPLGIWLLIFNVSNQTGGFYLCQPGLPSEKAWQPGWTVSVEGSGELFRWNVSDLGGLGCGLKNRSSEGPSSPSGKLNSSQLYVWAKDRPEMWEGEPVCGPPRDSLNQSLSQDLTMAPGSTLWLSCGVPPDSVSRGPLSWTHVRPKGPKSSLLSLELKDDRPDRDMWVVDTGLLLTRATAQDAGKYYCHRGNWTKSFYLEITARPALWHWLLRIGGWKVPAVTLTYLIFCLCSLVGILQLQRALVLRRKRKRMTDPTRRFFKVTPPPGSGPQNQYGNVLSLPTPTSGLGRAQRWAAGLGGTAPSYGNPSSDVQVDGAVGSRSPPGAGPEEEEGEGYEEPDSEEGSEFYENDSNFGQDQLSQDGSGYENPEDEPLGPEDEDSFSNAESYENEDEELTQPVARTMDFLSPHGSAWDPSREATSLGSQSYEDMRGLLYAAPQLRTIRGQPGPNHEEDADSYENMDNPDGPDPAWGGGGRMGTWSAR
# T2: cynomolgus CD19 (cynomolgus (Macaca fascicularis), UniProt A0A2K5W8L9 20-557)
# T2 construct: whole, on cells; also called CD19 from cynomolgus monkey (Macaca fascicularis)
# T2 sequence: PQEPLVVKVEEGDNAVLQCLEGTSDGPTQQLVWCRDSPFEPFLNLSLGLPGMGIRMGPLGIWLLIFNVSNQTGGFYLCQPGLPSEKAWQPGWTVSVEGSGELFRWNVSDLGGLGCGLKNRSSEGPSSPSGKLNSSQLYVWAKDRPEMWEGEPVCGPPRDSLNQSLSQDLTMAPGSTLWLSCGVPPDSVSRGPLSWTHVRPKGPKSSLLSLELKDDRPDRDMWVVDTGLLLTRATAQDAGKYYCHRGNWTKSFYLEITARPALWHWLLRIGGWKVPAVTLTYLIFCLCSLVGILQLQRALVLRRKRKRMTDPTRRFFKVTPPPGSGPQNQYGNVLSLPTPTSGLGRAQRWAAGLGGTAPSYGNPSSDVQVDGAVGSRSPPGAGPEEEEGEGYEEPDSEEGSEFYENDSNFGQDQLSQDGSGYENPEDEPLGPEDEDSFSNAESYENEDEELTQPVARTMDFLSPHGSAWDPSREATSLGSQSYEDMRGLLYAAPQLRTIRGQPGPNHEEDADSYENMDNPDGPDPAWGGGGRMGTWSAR
# T3: FcγRIIa - R131 (human, UniProt P12318)
# T3 construct: soluble His-tagged receptor; also called R131 FcγRIIa (FcγR-His)
# T3 sequence (receptor chain, looked up): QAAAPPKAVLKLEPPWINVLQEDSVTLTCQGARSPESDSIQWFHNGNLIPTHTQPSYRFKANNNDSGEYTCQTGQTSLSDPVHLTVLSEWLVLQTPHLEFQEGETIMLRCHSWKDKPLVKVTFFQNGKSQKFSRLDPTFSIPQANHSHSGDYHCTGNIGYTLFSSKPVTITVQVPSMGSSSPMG
# T4: FcγRIIa - H131 (human, UniProt P12318)
# T4 construct: soluble His-tagged receptor; also called H131 FcγRIIa (FcγR-His)
# T4 sequence (receptor chain, looked up): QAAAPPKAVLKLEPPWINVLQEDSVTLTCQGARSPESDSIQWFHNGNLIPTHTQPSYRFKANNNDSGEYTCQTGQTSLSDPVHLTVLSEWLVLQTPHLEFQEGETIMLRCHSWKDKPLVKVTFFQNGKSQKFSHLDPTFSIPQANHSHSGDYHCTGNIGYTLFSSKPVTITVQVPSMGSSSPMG
# T5: human CD19 (human, UniProt P15391 20-556)
# T5 construct: also called B-cell surface antigen B4; B-cell antigen CD19
# T5 sequence: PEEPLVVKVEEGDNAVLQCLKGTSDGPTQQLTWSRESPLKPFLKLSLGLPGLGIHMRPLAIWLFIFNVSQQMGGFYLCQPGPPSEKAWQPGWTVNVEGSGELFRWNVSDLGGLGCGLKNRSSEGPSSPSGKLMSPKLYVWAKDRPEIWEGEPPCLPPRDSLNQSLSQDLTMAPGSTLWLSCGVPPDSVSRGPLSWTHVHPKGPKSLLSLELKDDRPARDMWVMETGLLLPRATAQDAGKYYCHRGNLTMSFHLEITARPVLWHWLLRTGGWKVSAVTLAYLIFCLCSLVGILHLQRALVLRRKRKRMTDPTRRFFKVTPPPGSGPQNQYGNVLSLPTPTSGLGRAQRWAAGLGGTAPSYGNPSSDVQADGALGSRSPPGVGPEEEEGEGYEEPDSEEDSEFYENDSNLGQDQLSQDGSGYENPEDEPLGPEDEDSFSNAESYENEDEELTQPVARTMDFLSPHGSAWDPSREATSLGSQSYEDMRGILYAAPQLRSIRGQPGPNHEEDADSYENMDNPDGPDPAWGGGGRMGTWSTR
# B1: parental murine antibody of the anti-CD19 (4G7) (antibody, V domains shown)
# VH: EVQLQQSGPELIKPGASVKMSCKASGYTFTSYVMHWVKQKPGQGLEWIGYINPYNDGTKYNEKFKGKATLTSDKSSSTAYMELSSLTSEDSAVYYCARGTYYYGSRVFDYWGQGTTLTVSS
# VL: DIVMTQAAPSIPVTPGESVSISCRSSKSLLNSNGNTYLYWFLQRPGQSPQLLIYRMSNLASGVPDRFSGSGSGTAFTLRISRVEAEDVGVYYCMQHLEYPFTFGAGTKLELK
# notes: also called its parental murine antibody
# B2: 4G7 IgG1 (chimeric: murine 4G7 H0/L0 variable regions, human IgG1 and kappa constant regions) (antibody)
# heavy: not shown
# light: DIVMTQAAPSIPVTPGESVSISCRSSKSLLNSNGNTYLYWFLQRPGQSPQLLIYRMSNLASGVPDRFSGSGSGTAFTLRISRVEAEDVGVYYCMQHLEYPFTFGAGTKLELKRTVAAPSVFIFPPSDEQLKSGTASVVCLLNNFYPREAKVQWKVDNALQSGNSQESVTEQDSKDSTYSLSSTLTLSKADYEKHKVYACEVTHQGLSSPVTKSFNRGEC
# notes: also called 4G7 IgG1 antibody; WT IgG1 antibody; copies: 2 + 2
# B3: 4G7 Hybrid S239D/I332E (murine 4G7 H0/L0 variable regions, hybrid IgG1/IgG2 constant region with S239D/I332E) (antibody)
# heavy: EVQLQQSGPELIKPGASVKMSCKASGYTFTSYVMHWVKQKPGQGLEWIGYINPYNDGTKYNEKFKGKATLTSDKSSSTAYMELSSLTSEDSAVYYCARGTYYYGSRVFDYWGQGTTLTVSSASTKGPSVFPLAPSSKSTSGGTAALGCLVKDYFPEPVTVSWNSGALTSGVHTFPAVLQSSGLYSLSSVVTVPSSSLGTQTYICNVNHKPSNTKVDKKVEPKSCDKTHTCPPCPAPELLGGPDVFLFPPKPKDTLMISRTPEVTCVVVDVSHEDPEVQFNWYVDGVEVHNAKTKPREEQFNSTFRVVSVLTVVHQDWLNGKEYKCKVSNKALPAPEEKTISKTKGQPREPQVYTLPPSREEMTKNQVSLTCLVKGFYPSDIAVEWESNGQPENNYKTTPPMLDSDGSFFLYSKLTVDKSRWQQGNVFSCSVMHEALHNHYTQKSLSLSPGK
# light: DIVMTQAAPSIPVTPGESVSISCRSSKSLLNSNGNTYLYWFLQRPGQSPQLLIYRMSNLASGVPDRFSGSGSGTAFTLRISRVEAEDVGVYYCMQHLEYPFTFGAGTKLELKRTVAAPSVFIFPPSDEQLKSGTASVVCLLNNFYPREAKVQWKVDNALQSGNSQESVTEQDSKDSTYSLSSTLTLSKADYEKHKVYACEVTHQGLSSPVTKSFNRGEC
# notes: also called effector function enhanced anti-CD19; enhanced effector function anti-CD19; copies: 2 + 2
# B4: 4G7 H1L1 Hybrid S239D/I332E (antibody, human IgG1, kappa, V domains shown)
# VH: EVQLVESGGGLVKPGGSLKLSCAASGYTFTSYVMHWVRQAPGKGLEWIGYINPYNDGTKYNEKFQGRVTISSDKSISTAYMELSSLRSEDTAMYYCARGTYYYGSRVFDYWGQGTLVTVSS
# VL: DIVMTQSPATLSLSPGERATLSCRSSKSLLNSNGNTYLYWFQQKPGQSPQLLIYRMSNLASGVPDRFSGSGSGTEFTLTISSLEPEDFAVYYCMQHLEYPFTFGAGTKLEIKR
# notes: also called H1L1 mAb
# How the values were obtained:
# [1] = target: T1, rhesus CD19; experiment: flow cytometry on monkey blood lymphocytes (method for the murine antibody not detailed)
# [2] = target: T2, cynomolgus CD19; experiment: as above
# [3] = target: T6, human V158 FcγRIIIa (FcγR-His) (human, UniProt P08637 17-208, limits assumed); experiment: Biacore SPR; IgG captured on protein A/G, FcγR-His injected; 1:1 model
# T6 construct: Soluble His-tagged receptor injected as analyte in Biacore; not shown: His tag ('FcγR-His')
# Procedure: (§1) Briefly, protein A/G was coupled to a flow cell of a CM5 chip. IgG was first diluted to 25 nM and immobilized to protein A/G channel to ˜1000 RUs. FcγR-His was serially diluted and injected at […] for 2 min followed by dissociation for 3 min. To determine KD the resulting sensorgrams are “group-fitted” using the 1:1 interaction model available in BlAevaluation software.
# [4] = target: T3, FcγRIIa - R131; experiment: Biacore SPR: IgG captured on protein A/G (CM5 chip), FcγR-His injected; KD from 1:1 group fit, plotted as -log(KD)
# Procedure: as §1
# [5] = target: T4, FcγRIIa - H131; experiment: as above
# Procedure: as §1
# [6] = target: T5, human CD19; experiment: DELFIA time-resolved fluorometry competition on Raji cells; competitor tracer is Eu-labeled anti-CD19 (H0L0)
# Procedure: Affinities of enhanced effector function anti-CD19 variants were determined by using the DELFIA® system (PerkinElmer Life Sciences) which is based on Time-Resolved Fluorometry (TRF). […] The assay is essentially applied as a competition assay for screening anti-CD19 antibodies of different affinities.
# [7] = target: T7, human F158 FcγRIIIa (FcγR-His) (human, UniProt P08637 17-208, limits assumed); experiment: Biacore SPR; IgG captured on protein A/G, FcγR-His injected; 1:1 model
# T7 construct: Soluble His-tagged receptor injected as analyte in Biacore; not shown: His tag ('FcγR-His')
# Procedure: as §1
# [8] = target: T6, human V158 FcγRIIIa (FcγR-His); experiment: Biacore SPR; IgG captured on protein A/G, FcγR-His injected; reference is 4G7 IgG1 (WT)
# Procedure: as §1
# [9] = target: T5, human CD19; experiment: flow cytometry, binding to CD19 on RS4;11 cells, MFI against Log[Ab], nM
# T6 sequence (P08637 17-208 F176V limits assumed): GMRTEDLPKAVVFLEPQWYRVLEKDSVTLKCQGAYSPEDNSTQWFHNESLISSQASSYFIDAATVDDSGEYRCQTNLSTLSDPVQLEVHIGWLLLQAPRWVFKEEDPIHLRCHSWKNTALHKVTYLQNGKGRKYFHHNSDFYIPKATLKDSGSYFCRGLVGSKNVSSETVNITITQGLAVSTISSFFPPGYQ
# T7 sequence (P08637 17-208 limits assumed): as the sequence (P08637 17-208 F176V limits assumed) above, with V160F counted along it
Binder,Kd [3] [nM],binding result [4],binding result [5],further results
B1,–,–,–,binding result [1]: no binding; binding result [2]: no binding
B2,~240,binds,binds,–
B3,~4.7,binds,binds,EC50 [6]: 1.2 nM; Kd [7]: ~16.7 nM; affinity enhancement relative to WT [8]: ~50 fold
B4,–,–,–,EC50 (read off the curve) [9]: ~6 nM

# — patent US20100272723A1 (Xencor, published 2010)
